The record followed here is PMC12360457 (Nature, 2025).

The data set deals with the molecule itself. The data set can be described thus: cryo-EM structure.

B1: Hailong protein A (HalA) from Rhodobacteraceae bacterium QY30, purified as the detergent-solubilized HalA–ODA complex (natural protein)
chain: DTNAVKEPEPALPSAASRGRRTKNWWEPMFDANAPASFSVSDWNFSNNRGPRCTLFLAEKMPDATTLVVKDIDFQDCDFQGTFERKIVFKDCKFTRCDFGLSTFSRTKFSGCSFYASSFTQCTLENCEFRNCKYEKIFYSGNETQIPRTLIAEPYQFLFGACATVDSVPQGKSRFEQRARFEETRSTIARALLANLHSEGSEDTYYAAVKASTLSENRARIARALIKINSSASKGKSIISRAVSFLTGFASAISAVVGMLILLVMGSLNGWGSSISRAMLVGVVAISCVAYRYHYRFNLPPEDAMVKATEIFFLFGYTNYAKMGQEDFHLVFSNALLGLFWYAIAIPTISNRLTRARG
On to B1, for which the binding result is recorded as “binds”.
